B1: Regulator of nonsense transcripts 1 (Homo sapiens), Q92900 (parent)
chain: MSVEAYGPSSQTLTFLDTEEAELLGADTQGSEFEFTDFTLPSQTQTPPGGPGGPGGGGAGGPGGAGAGAAAGQLDAQVGPEGILQNGAVDDSVAKTSQLLAELNFEEDEEDTYYTKDLPIHACSYCGIHDPACVVYCNTSKKWFCNGRGNTSGSHIVNHLVRAKCKEVTLHKDGPLGETVLECYNCGCRNVFLLGFIPAKADSVVVLLCRQPCASQSSLKDINWDSSQWQPLIQDRCFLSWLVKIPSEQEQLRARQITAQQINKLEELWKENPSATLEDLEKPGVDEEPQHVLLRYEDAYQYQNIFGPLVKLEADYDKKLKESQTQDNITVRWDLGLNKKRIAYFTLPKTDSGNEDLVIIWLRDMRLMQGDEICLRYKGDLAPLWKGIGHVIKVPDNYGDEIAIELRSSVGAPVEVTHNFQVDFVWKSTSFDRMQSALKTFAVDETSVSGYIYHKLLGHEVEDVIIKCQLPKRFTAQGLPDLNHSQVYAVKTVLQRPLSLIQGPPGTGKTVTSATIVYHLARQGNGPVLVCAPSNIAVDQLTEKIHQTGLKVVRLCAKSREAIDSPVSFLALHNQIRNMDSMPELQKLQQLKDETGELSSADEKRYRALKRTAERELLMNADVICCTCVGAGDPRLAKMQFRSILIDESTQATEPECMVPVVLGAKQLILVGDHCQLGPVVMCKKAAKAGLSQSLFERLVVLGIRPIRLQVQYRMHPALSAFPSNIFYEGSLQNGVTAADRVKKGFDFQWPQPDKPMFFYVTQGQEEIASSGTSYLNRTEAANVEKITTKLLKAGAKPDQIGIITPYEGQRSYLVQYMQFSGSLHTKLYQEVEIASVDAFQGREKDFIILSCVRANEHQGIGFLNDPRRLNVALTRARYGVIIVGNPKALSKQPLWNHLLNYYKEQKVLVEGPLNNLRESLMQFSKPRKLVNTINPGARFMTTAMYDAREAIIPGSVYDRSSQGRPSSMYFQTHDQIGMISAGPSHVAAMNIPIPFNLVMPPMPPPGYFGQANGPAAGRGTPKGKTGRGGRQKNRFGLPGPSQTNLPNSQASQDVASQPFSQGALTQGYISMSQPSQMSQPGLSQPELSQDSYLGDEFKSQIDVALSQDSTYQGERAYQHGGVTGLSQY

Variants of: B1
Conditions: with rent2_human UPF2, Q9HAU5
rent2_human UPF2, Q9HAU5, sequence (Q9HAU5 whole entry): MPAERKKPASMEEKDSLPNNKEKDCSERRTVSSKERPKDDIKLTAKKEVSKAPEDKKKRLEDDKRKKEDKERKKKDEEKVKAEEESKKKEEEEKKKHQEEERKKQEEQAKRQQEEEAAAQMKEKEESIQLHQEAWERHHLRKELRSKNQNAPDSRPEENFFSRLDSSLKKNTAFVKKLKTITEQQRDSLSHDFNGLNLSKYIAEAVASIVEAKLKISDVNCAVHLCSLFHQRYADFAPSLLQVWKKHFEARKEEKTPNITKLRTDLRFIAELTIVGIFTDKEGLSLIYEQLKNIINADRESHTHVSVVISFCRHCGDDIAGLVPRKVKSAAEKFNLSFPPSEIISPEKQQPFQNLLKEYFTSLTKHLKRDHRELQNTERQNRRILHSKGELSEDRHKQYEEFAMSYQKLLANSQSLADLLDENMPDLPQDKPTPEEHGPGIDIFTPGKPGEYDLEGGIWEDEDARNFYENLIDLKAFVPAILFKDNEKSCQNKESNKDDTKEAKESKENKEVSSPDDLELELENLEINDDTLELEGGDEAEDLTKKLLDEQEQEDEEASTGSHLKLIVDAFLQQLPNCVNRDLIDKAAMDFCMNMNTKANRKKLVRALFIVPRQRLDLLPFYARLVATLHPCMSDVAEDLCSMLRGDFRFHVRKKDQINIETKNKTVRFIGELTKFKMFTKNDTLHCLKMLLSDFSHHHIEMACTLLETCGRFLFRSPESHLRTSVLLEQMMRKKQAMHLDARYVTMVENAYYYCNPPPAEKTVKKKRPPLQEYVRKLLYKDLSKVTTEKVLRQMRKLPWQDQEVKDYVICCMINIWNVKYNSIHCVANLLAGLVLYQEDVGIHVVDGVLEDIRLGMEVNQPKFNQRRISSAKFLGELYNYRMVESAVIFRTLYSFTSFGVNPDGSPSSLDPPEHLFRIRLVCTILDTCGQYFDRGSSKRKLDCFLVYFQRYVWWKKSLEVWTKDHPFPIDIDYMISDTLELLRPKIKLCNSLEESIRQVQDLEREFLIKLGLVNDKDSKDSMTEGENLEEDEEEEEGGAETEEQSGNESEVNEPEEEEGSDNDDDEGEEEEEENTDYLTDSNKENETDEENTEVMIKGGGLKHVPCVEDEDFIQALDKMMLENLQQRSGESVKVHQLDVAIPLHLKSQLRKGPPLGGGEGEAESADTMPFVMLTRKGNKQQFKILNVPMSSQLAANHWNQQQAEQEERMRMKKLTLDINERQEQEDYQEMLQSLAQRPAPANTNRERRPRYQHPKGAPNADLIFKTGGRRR
With L181V the “effect of a mutation on the interaction” value was “disrupting interaction”. For Y184D, the “effect of a mutation on the interaction” value was “disrupting interaction”. With C183V the “effect of a mutation on the interaction” value was “disrupting interaction”. In the case of E182R, the “effect of a mutation on the interaction” value is reported as “disrupting interaction”.

Variants of: B1
Conditions: with rent2_human UPF2, Q9HAU5
Remark: another data set of the same source
In the case of C126S, the “effect of a mutation on the interaction” value is reported as “disrupting interaction”.

Variants of: B1
Conditions: with rent2_human UPF2, Q9HAU5
Remark: another data set of the same source
For V204D, the “effect of a mutation on the interaction” value was “disrupting interaction”. In the case of V205I, the “effect of a mutation on the interaction” value is reported as “disrupting interaction”.
